Source: PMC10847457 (Cell Discovery, 2024)

target: SARS-CoV-2 S trimer (stabilized soluble S2P) (SARS-CoV-2, ancestral (WT, Wuhan-Hu-1 …, UniProt P0DTC2, stabilised)); assay: ELISA; conditions: both partners purified

Row | Binder | binding result
1 | PW5-570 (antibody, V domains shown, also called PW5-570 IgG; PW5-570 immunoglobulin G) VH: QMQLVQSGPEVRKPGTSVKVSCRASVFSFDTSAVQWVRQARGQPLEWIGWIVFGSSNTDYAQKFRDRVTITGDMSTGTAYMELSSLRSEDTAVYYCAAPHCNRTNCHDGFDIWGQGTVVTVSS VL: EIVLTQSPGTLSLSPGERATLSCRASQSVRSGYLGWYQQKPGQAPRLLIYGAYNRATGIPDRFRGSGSGTDFTLTISRLEPEDFVVYYCQQYDRSPWTFGQGTKVEIK | binds
2 | PW5-535 (antibody, V domains shown) VH: EVRLVESGGGLVQPGGSLRLSCAASGFTFRNYDIHWVRQTTGKGLEWVSAVGTSGDTYYLDSVKGRFTISREDAKKSVYLQMNSLRAGDTAMYYCVRGDASPDNIYYYMDVWGTGTRVIVSS VL: DIQVTQSPSPLSASVGDRVTITCRASQTIGKYLNWYHQIPGKAPKLLISAASTLHSGVPSRFSGRGSGTDFTLTISSLQPEDFGTYYCQQSYSSPPWTFGQGTKVEIK | binds
3 | PW5-5 (antibody, V domains shown, also called PW5-5 IgG; IgG PW5-5) VH: QVQLVQSGAEVKKPGASVKVSCKTSGYTFTDHYMYWVRQAPGQGLEWMGVINPDAGSVTYAQKFQGRVTMTSDTSTSTVYMELSSLRSEDTAVYYCARDLFFIPAANSFDYWGQGTLVTVSS VL: EIVLTQSPATLSLSPGERATLSCRASQSVSSYLAWYQQKPGQAPRLLIYDATNRATGIPARFSGSGSGTDFTLTISSLEPEDFAVYYCQHRSNWPRMFTFGQGTKLEIK | binds
